Assay results as given in ChEMBL document CHEMBL4482315, “In vivo imaging of sulfotransferases” (2013).
Several values for one entry are separate records, joined by “and”; a condition that tells them apart may be missing. Equal values may be shown once.

How the values were obtained:
not read = substrate: Oc1ccc2ccccc2c1; assay: not read
[1] = substrate: CN(C)c1ccc(-c2nc3cc(O)ccc3s2)cc1; assay: (§1) Substrate activity at SULT1A1 (unknown origin) expressed in baculovirus infected Sf9 cells assessed as substrate Km incubated for 15 mins using [35S-]PAPS as sulfate donor by TLC analysis; set-up: species or system Homo sapiens
[2] = substrate: CNc1ccc(-c2nc3cc(O)ccc3s2)cc1; assay: as §1; set-up: species or system Homo sapiens
[3] = substrate: Cc1nc2cc(O)ccc2s1; assay: as §1; set-up: species or system Homo sapiens
[4] = substrate: Cc1nc2ccc(O)cc2s1; assay: as §1; set-up: species or system Homo sapiens
[5] = substrate: Oc1ccc2[nH]ccc2c1; assay: as §1; set-up: species or system Homo sapiens
[6] = substrate: Oc1ccc2[nH]cnc2c1; assay: as §1; set-up: species or system Homo sapiens
[7] = substrate: Oc1ccc2cc[nH]c2c1; assay: as §1; set-up: species or system Homo sapiens
[8] = substrate: Oc1ccc2ccoc2c1; assay: as §1; set-up: species or system Homo sapiens
[9] = substrate: Oc1ccc2ccsc2c1; assay: as §1; set-up: species or system Homo sapiens
[10] = substrate: Oc1ccc2nc(-c3ccccc3)sc2c1; assay: as §1; set-up: species or system Homo sapiens
[11] = substrate: Oc1ccc2ncoc2c1; assay: as §1; set-up: species or system Homo sapiens
[12] = substrate: Oc1ccc2ncsc2c1; assay: as §1; set-up: species or system Homo sapiens
[13] = substrate: Oc1ccc2occc2c1; assay: as §1; set-up: species or system Homo sapiens
[14] = substrate: Oc1ccc2sccc2c1; assay: as §1; set-up: species or system Homo sapiens
[15] = substrate: CC(=O)Nc1ccc(-c2nc3ccc(O)cc3s2)cc1; assay: (§2) Substrate activity at SULT1E1 (unknown origin) expressed in baculovirus infected Sf9 cells assessed as substrate Km incubated for 15 mins using [35S-]PAPS as sulfate donor by TLC analysis; set-up: species or system Homo sapiens
[16] = substrate: CN(C)c1ccc(-c2nc3cc(O)ccc3s2)cc1; assay: as §2; set-up: species or system Homo sapiens
[17] = substrate: CN(C)c1ccc(-c2nc3ccc(O)cc3s2)cc1; assay: as §2; set-up: species or system Homo sapiens
[18] = substrate: CNc1ccc(-c2nc3cc(O)ccc3s2)cc1; assay: as §2; set-up: species or system Homo sapiens
[19] = substrate: CNc1ccc(-c2nc3ccc(O)cc3s2)cc1; assay: as §2; set-up: species or system Homo sapiens
[20] = substrate: COc1ccc(-c2nc3ccc(O)cc3s2)cc1; assay: as §2; set-up: species or system Homo sapiens
[21] = substrate: CS(=O)(=O)c1ccc(-c2nc3ccc(O)cc3s2)cc1; assay: as §2; set-up: species or system Homo sapiens
[22] = substrate: Cc1nc2cc(O)ccc2s1; assay: as §2; set-up: species or system Homo sapiens
[23] = substrate: Cc1nc2ccc(O)cc2s1; assay: as §2; set-up: species or system Homo sapiens
[24] = substrate: N#Cc1ccc(-c2nc3ccc(O)cc3s2)cc1; assay: as §2; set-up: species or system Homo sapiens
[25] = substrate: Nc1ccc(-c2nc3ccc(O)cc3s2)cc1; assay: as §2; set-up: species or system Homo sapiens
[26] = substrate: O=[N+]([O-])c1ccc(-c2nc3ccc(O)cc3s2)cc1; assay: as §2; set-up: species or system Homo sapiens
[27] = substrate: Oc1ccc2ccoc2c1; assay: as §2; set-up: species or system Homo sapiens
[28] = substrate: Oc1ccc2ccsc2c1; assay: as §2; set-up: species or system Homo sapiens
[29] = substrate: Oc1ccc2nc(-c3ccc(F)cc3)sc2c1; assay: as §2; set-up: species or system Homo sapiens
[30] = substrate: Oc1ccc2nc(-c3ccc(I)cc3)sc2c1; assay: as §2; set-up: species or system Homo sapiens
[31] = substrate: Oc1ccc2nc(-c3ccccc3)sc2c1; assay: as §2; set-up: species or system Homo sapiens
[32] = substrate: Oc1ccc2ncoc2c1; assay: as §2; set-up: species or system Homo sapiens
[33] = substrate: Oc1ccc2ncsc2c1; assay: as §2; set-up: species or system Homo sapiens
[34] = substrate: Oc1ccc2occc2c1; assay: as §2; set-up: species or system Homo sapiens
[35] = substrate: Oc1ccc2sccc2c1; assay: as §2; set-up: species or system Homo sapiens
[36] = substrate: Cc1nc2cc(O)ccc2s1; assay: (§3) Substrate activity at SULT1A3 (unknown origin) expressed in baculovirus infected Sf9 cells assessed as substrate Km incubated for 15 mins using [35S-]PAPS as sulfate donor by TLC analysis; set-up: species or system Homo sapiens
[37] = substrate: Oc1ccc2[nH]ccc2c1; assay: as §3; set-up: species or system Homo sapiens
[38] = substrate: Oc1ccc2cc[nH]c2c1; assay: as §3; set-up: species or system Homo sapiens
[39] = substrate: Oc1ccc2ccoc2c1; assay: as §3; set-up: species or system Homo sapiens
[40] = substrate: Oc1ccc2ccsc2c1; assay: as §3; set-up: species or system Homo sapiens
[41] = substrate: Oc1ccc2ncoc2c1; assay: as §3; set-up: species or system Homo sapiens
[42] = substrate: Oc1ccc2ncsc2c1; assay: as §3; set-up: species or system Homo sapiens
[43] = substrate: Oc1ccc2occc2c1; assay: as §3; set-up: species or system Homo sapiens
[44] = substrate: Oc1ccc2sccc2c1; assay: as §3; set-up: species or system Homo sapiens

B1: Sulfotransferase 2A1 (Homo sapiens) (protein)
chain: MSDDFLWFEGIAFPTMGFRSETLRKVRDEFVIRDEDVIILTYPKSGTNWLAEILCLMHSKGDAKWIQSVPIWERSPWVESEIGYTALSETESPRLFSSHLPIQLFPKSFFSSKAKVIYLMRNPRDVLVSGYFFWKNMKFIKKPKSWEEYFEWFCQGTVLYGSWFDHIHGWMPMREEKNFLLLSYEELKQDTGRTIEKICQFLGKTLEPEELNLILKNSSFQSMKENKMSNYSLLSVDYVVDKAQLLRKGVSGDWKNHFTVAQAEDFDKLFQEKMADLPRELFPWE
Km (not read): 254 µM
Vmax (not read): 0.00019 µmol/min/mg

B2: Sulfotransferase 1A1 (Homo sapiens) (protein)
chain: MELIQDTSRPPLEYVKGVPLIKYFAEALGPLQSFQARPDDLLISTYPKSGTTWVSQILDMIYQGGDLEKCHRAPIFMRVPFLEFKAPGIPSGMETLKDTPAPRLLKTHLPLALLPQTLLDQKVKVVYVARNAKDVAVSYYHFYHMAKVHPEPGTWDSFLEKFMVGEVSYGSWYQHVQEWWELSRTHPVLYLFYEDMKENPKREIQKILEFVGRSLPEETVDFVVQHTSFKEMKKNPMTNYTTVPQEFMDHSISPFMRKGMAGDWKTTFTVAQNERFDADYAEKMAGCSLSFRSEL
Km (not read): 0.17 µM
Vmax (not read): 0.0146 µmol/min/mg
Km [1]: 0.04 µM
Vmax [1]: 0.011 µmol/min/mg
Km [2]: 0.012 µM
Vmax [2]: 0.0039 µmol/min/mg
Km [3]: 5.9 µM
Vmax [3]: 0.0193 µmol/min/mg
Km [4]: 6.2 µM
Vmax [4]: 0.0103 µmol/min/mg
Km [5]: 6.62 µM
Vmax [5]: 0.0128 µmol/min/mg
Km [6]: 19.3 µM
Vmax [6]: 0.0085 µmol/min/mg
Km [7]: 0.23 µM
Vmax [7]: 0.0203 µmol/min/mg
Km [8]: 0.18 µM
Vmax [8]: 0.0265 µmol/min/mg
Km [9]: 0.08 µM
Vmax [9]: 0.00978 µmol/min/mg
Km [10]: 0.045 µM
Vmax [10]: 0.00525 µmol/min/mg
Km [11]: 5.5 µM
Vmax [11]: 0.0132 µmol/min/mg
Km [12]: 2.08 µM
Vmax [12]: 0.0103 µmol/min/mg
Km [13]: 0.62 µM
Vmax [13]: 0.00987 µmol/min/mg
Km [14]: 0.14 µM
Vmax [14]: 0.0112 µmol/min/mg

B3: Sulfotransferase 1E1 (Homo sapiens) (protein)
chain: MNSELDYYEKFEEVHGILMYKDFVKYWDNVEAFQARPDDLVIATYPKSGTTWVSEIVYMIYKEGDVEKCKEDVIFNRIPFLECRKENLMNGVKQLDEMNSPRIVKTHLPPELLPASFWEKDCKIIYLCRNAKDVAVSFYYFFLMVAGHPNPGSFPEFVEKFMQGQVPYGSWYKHVKSWWEKGKSPRVLFLFYEDLKEDIRKEVIKLIHFLERKPSEELVDRIIHHTSFQEMKNNPSTNYTTLPDEIMNQKLSPFMRKGITGDWKNHFTVALNEKFDKHYEQQMKESTLKFRTEI
Vmax (not read): 0.00339 µmol/min/mg and 0.00486 µmol/min/mg
Km [15]: 2.36 µM
Vmax [15]: 0.00204 µmol/min/mg
Km [16]: 0.39 µM
Vmax [16]: 0.00098 µmol/min/mg
Km [17]: 1.33 µM
Vmax [17]: 0.00149 µmol/min/mg
Km [18]: 1.31 µM
Vmax [18]: 0.00182 µmol/min/mg
Km [19]: 1.6 µM
Vmax [19]: 0.0021 µmol/min/mg
Km [20]: 0.9 µM
Vmax [20]: 0.00197 µmol/min/mg
Km [21]: 1.32 µM
Vmax [21]: 0.00357 µmol/min/mg
Km [22]: 15.9 µM
Vmax [22]: 0.0047 µmol/min/mg
Km [23]: 6.96 µM
Vmax [23]: 0.00329 µmol/min/mg
Km [24]: 0.25 µM
Vmax [24]: 0.00433 µmol/min/mg
Km [25]: 1.63 µM
Vmax [25]: 0.00278 µmol/min/mg
Km [26]: 0.12 µM
Vmax [26]: 0.00343 µmol/min/mg
Km [27]: 90.9 µM
Vmax [27]: 0.00272 µmol/min/mg
Km [28]: 11.5 µM
Vmax [28]: 0.00287 µmol/min/mg
Km [29]: 0.92 µM
Vmax [29]: 0.00416 µmol/min/mg
Km [30]: 0.52 µM
Vmax [30]: 0.00295 µmol/min/mg
Km [31]: 0.99 µM
Vmax [31]: 0.00318 µmol/min/mg
Km [32]: 525 µM
Vmax [32]: 0.0033 µmol/min/mg
Km [33]: 61.3 µM
Vmax [33]: 0.0023 µmol/min/mg
Km [34]: 177 µM
Vmax [34]: 0.00179 µmol/min/mg
Km [35]: 38 µM
Vmax [35]: 0.00291 µmol/min/mg
Km [36]: 1040 µM
Vmax [36]: 0.0101 µmol/min/mg
Km [37]: 575 µM
Vmax [37]: 0.00366 µmol/min/mg
Km [38]: 2710 µM
Vmax [38]: 0.0195 µmol/min/mg
Km [39]: 377 µM
Vmax [39]: 0.00888 µmol/min/mg
Km [40]: 157 µM
Vmax [40]: 0.00982 µmol/min/mg
Km [41]: 1070 µM
Vmax [41]: 0.0115 µmol/min/mg
Km [42]: 280 µM
Vmax [42]: 0.00809 µmol/min/mg
Km [43]: 385 µM
Vmax [43]: 0.00834 µmol/min/mg
Km [44]: 251 µM
Vmax [44]: 0.00612 µmol/min/mg
